Experimental findings from US20190389914A1 (University of California, published 2019) are described below.

Substitutions are numbered along the chain they refer to. In names and notes the source's numbering stands.

The target in test [1] is GAL4 activation domain fusion to HAB1 (pACT-HAB1), wild type (Arabidopsis thaliana (Mouse-ear cress)) (UniProt Q9CAJ0). In words: Y2H, mandipropamid (FIG. 6).
In test [2] the target is GAL4 activation domain fusion to HAB1^!-3 (pACT-HAB1^!-3; D204A in HAB1^!-2) (Arabidopsis thaliana (Mouse-ear cress)) (UniProt Q9CAJ0). In words: Y2H, mandipropamid (FIG. 5).
In test [3] the target is GAL4 activation domain fusion to HAB1^V393R (Arabidopsis thaliana (Mouse-ear cress)) (UniProt Q9CAJ0). Description: Y2H, ABA, beta-gal staining (FIG. 1).
Test [4] deals with T1, 6x-His-PYR1 (recombinant wild type, E. coli) (Arabidopsis, UniProt O49686 1-191).
T1 construct: Previously constructed (Park et al., 2009); also called 6×-His-PYR1; wild type PYR1; not shown: 6x-His tag
T1 sequence: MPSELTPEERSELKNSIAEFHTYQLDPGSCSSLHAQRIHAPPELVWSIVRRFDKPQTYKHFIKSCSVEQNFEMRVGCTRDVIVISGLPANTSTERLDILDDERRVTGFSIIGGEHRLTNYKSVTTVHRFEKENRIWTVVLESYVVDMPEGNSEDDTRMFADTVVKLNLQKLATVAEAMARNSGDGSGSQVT
In words: pull-down on His-tag resin, SDS-PAGE (FIG. 8).

Test [5] deals with T2, GAL4 activation domain fusion to HAB1^!-2 (pACT-HAB1^!-2; HAB1^V393R/R505A) (Arabidopsis thaliana (Mouse-ear cress), UniProt Q9CAJ0 4-511).
T2 construct: R505A introduced into the pACT clone carrying V393R; the pACT-HAB1 template lacks the three N-terminal amino acids of HAB1; also called HAB^!-2
T2 sequence: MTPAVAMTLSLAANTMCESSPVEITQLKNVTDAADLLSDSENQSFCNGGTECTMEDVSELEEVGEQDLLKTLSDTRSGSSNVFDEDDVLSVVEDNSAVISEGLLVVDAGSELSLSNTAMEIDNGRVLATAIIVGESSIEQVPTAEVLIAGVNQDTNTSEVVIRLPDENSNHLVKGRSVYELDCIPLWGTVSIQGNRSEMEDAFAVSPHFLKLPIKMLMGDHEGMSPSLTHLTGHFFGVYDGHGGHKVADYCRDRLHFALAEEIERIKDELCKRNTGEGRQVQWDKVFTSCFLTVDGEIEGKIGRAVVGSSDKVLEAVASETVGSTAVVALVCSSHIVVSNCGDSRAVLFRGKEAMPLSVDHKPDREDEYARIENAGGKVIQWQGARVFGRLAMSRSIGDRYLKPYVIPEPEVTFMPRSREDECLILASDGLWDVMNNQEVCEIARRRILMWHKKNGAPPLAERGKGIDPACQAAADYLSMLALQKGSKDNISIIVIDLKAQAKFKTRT
In words: Y2H, mandipropamid (FIG. 3).

For test [6], the target named is T3, GAL4 activation domain fusion to HAB1^V393R (Arabidopsis thaliana (Mouse-ear cress), UniProt Q9CAJ0 4-511).
T3 construct: Mutant of the pACT-HAB1 template, which lacks the three N-terminal amino acids of HAB1; Denoted HAB1^!
T3 sequence: T2 sequence with A502R
In words: Y2H, mandipropamid (FIG. 3).

In test [1], “GAL4 DNA binding domain fusion to PYR1*^-MANDI (PYR1^Y58H;K59R;V81I;F108A;S122G;M158I;F159V;A160V;T162D) (from UniProt P04386 1-147) (receptor)” gave a fold less sensitivity to mandipropamid than the orthogonal interaction of 10 fold. In addition, the fold less sensitive to mandipropamid relative to HAB1^!-2 in test [2] is 10 fold.
Molecule “GAL4 DNA binding domain fusion to PYR1^T162D (from UniProt P04386 1-147) (receptor)” returned a fold less sensitive to ABA than wild type pBD-PYR1/pACT-HAB1 control cells in test [3] of 4 fold.

B1: GST-HAB1* (recombinant, E. coli) (enzyme)
chain: T2 sequence with R196A, D201A, S319D
notes: Cloned into pGEX-4T-1; not shown: glutathione S-transferase (GST) of pGEX-4T-1
With B1, the binding result in test [4] is reported as “no binding”.

B2: GAL4 DNA binding domain fusion to PYR1^!-MANDI (PYR1^Y58H;K59R;V81I;F108A;S122G;F159L;T162D) (receptor, not shown: small tags and cut ends)
chain: T1 sequence with Y58H, K59R, V81I, F108A, S122G, F159L, T162D
notes: Septuple mutant; also called pBD-PYR1^!-MANDI
On to B2, for which the “fold less sensitive to mandipropamid than the PYR1^MANDI/HAB1 interaction” value in test [5] and in test [6] was around 100 fold in each case.
